Consider one molecule from patent US20120219559A1 (Johns Hopkins, published 2012).

Assay [1] deals with T1, B7-H2 (Y51A) mutant, full length with C terminal GFP tag, on 293T cells (human, UniProt O75144 19-302, The C-terminal GFP reporter is not carried in the letters.).
T1 construct: not shown: C-terminal GFP tag and any linker to it
T1 sequence: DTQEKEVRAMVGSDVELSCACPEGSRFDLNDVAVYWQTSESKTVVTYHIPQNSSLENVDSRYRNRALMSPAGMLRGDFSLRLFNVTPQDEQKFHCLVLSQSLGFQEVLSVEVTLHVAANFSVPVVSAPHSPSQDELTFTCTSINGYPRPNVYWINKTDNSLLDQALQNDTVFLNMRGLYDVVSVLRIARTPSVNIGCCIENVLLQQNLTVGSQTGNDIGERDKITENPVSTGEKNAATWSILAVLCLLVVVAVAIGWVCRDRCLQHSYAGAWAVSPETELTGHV
Nature of the assay: flow cytometry; ICOSIg binding to 293T cells expressing the mutant. The source says: (§1) These residues were all converted to alanine, a small […] amino acid with neutral charge, to avoid a large overall structure modulation (16).
On the technique in general: Flow cytometry measures light scatter and fluorescence of single cells or particles in a stream.

In assay [2] the target is T2, B7-H2 (Y53A) mutant, full length with C terminal GFP tag, on 293T cells (human, UniProt O75144 19-302, The C-terminal GFP reporter is not carried in the letters.).
T2 construct: not shown: C-terminal GFP tag and any linker to it
T2 sequence: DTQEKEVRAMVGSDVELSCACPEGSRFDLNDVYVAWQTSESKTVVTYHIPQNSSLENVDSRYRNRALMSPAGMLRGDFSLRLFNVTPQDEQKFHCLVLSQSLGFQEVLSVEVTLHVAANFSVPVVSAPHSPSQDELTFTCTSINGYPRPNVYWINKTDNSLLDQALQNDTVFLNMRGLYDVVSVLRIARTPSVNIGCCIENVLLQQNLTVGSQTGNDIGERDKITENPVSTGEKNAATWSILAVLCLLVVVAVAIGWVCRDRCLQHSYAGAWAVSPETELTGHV
The assay is described as above.
Text: as §1

The target of assay [3] is T3, human B7-H2Ig fusion protein (human, UniProt O75144 19-258).
T3 construct: Ig (Fc) part not given
T3 sequence: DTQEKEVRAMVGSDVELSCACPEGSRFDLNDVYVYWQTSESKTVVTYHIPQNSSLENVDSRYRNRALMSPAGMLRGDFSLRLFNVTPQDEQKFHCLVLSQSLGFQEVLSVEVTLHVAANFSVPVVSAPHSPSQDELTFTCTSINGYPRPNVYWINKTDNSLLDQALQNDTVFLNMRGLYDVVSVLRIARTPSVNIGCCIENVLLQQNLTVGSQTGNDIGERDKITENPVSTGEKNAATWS
Nature of the assay: SPR (BIAcore 3000); comparison of ICOSIg and CD28Ig on immobilized B7-H2Ig. As for the experimental part:
(§2) For all experiments, the same fusion proteins were injected into uncoated control flow cells to serve as the control. Binding data was overlaid with the fit of 1:1 interaction model.
(§3) Surface Plasmon Resonance. Protein interactions were measured and analyzed on a BIAcore 3000 instrument (BIAcore AB, Uppsala, Sweden) performed at 25° C. as described previously 20. […] Hepes, pH 7.4, containing 0.15 M NaCl, 0.005% surfactant P20 (HBS) was used as running buffer. […] All other reagents were purchased from BIAcore. […] The remaining activated carboxyl groups were blocked with 1 M ethanolamine (pH 8.5). Subsequently, the flow cells were extensively washed with HBS to generate a stable baseline. […] The flow cells were regenerated by two consecutive 10-second pulses with 10 mM NaOH. Data was analyzed by BIAevaluation software 4.1 (BIAcore).
In general terms: In SPR one partner is held on a chip, and binding of the other changes the refractive index at the surface.

In assay [4] the target is T3, human B7-H2Ig fusion protein. Put plainly: SPR (BIAcore 3000), ICOSIg injected over B7-H2Ig coupled at 500 RU, 1:1 fit. As for the experimental part:
as §3, with “Protein” for “Surface Plasmon Resonance. Protein”, “(3).” for “20.”, “pulse” for “pulses”

For assay [5] the target is unchanged. The assay is described as above. On the procedure:
as §2, §3
This is another data set of the same source.

Assay [6] has the same target. Nature of the assay: SPR (BIAcore 3000); ICOSIg injected over B7-H2Ig coupled to a CM5 chip; 1:1 interaction model. On the procedure:
as §2, §3

The target in assay [7] is T4, human B7-H1 expressed on 293T cells (human, UniProt Q9NZQ7 19-290).
T4 construct: whole, on cells
T4 sequence (Q9NZQ7 19-290): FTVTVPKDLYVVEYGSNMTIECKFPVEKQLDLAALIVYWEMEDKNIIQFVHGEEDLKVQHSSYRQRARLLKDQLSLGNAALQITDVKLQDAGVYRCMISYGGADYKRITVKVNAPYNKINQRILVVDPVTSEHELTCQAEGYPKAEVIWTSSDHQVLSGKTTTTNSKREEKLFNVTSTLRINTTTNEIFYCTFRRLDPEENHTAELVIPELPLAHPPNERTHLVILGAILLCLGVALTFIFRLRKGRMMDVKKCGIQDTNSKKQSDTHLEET
Nature of the assay: CDS well image, 293T cells transfected with the human gene, stained with the human fusion protein.

Assay [8] concerns the target T5, human CTLA-4, full length, expressed on cells (CTLA-4+293T cells) (human, UniProt P16410 36-223).
T5 sequence: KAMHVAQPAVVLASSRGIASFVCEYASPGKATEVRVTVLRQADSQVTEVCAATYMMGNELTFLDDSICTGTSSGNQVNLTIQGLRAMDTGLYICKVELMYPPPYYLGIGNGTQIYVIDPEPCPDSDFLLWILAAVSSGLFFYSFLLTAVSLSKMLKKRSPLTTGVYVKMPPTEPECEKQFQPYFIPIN
The assay is described as above.

Assay [9] addresses T6, human B7-1 (CD80) expressed on 293T cells (human, UniProt P33681 35-288).
T6 construct: whole, on cells
T6 sequence (looked up): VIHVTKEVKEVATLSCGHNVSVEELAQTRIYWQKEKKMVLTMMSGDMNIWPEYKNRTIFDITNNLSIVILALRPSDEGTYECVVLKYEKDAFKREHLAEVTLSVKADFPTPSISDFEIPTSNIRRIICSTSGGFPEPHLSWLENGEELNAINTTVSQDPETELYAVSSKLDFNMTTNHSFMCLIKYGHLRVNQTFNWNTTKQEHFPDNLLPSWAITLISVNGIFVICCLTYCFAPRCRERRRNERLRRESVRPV
Described as above.

Read-outs that look alike come from different tables or passages of the source.

B1: human ICOSIg fusion protein (Fc fusion)
chain: EINGSANYEMFIFHNGGVQILCKYPDIVQQFKMQLLKGGQILCDLTKTKGSGNTVSIKSLKFCHSQLSNNSVSFFLYNLDHSHANYYFCNLSIFDPPPFKVTLTGGYLHIYESQLCCQLKF
notes: Bought from R&D Systems; Ig (Fc) part not given
For B1, the binding result in assay [1], in [2], in [7], in [8] and in assay [9] was “no binding” in each case. Besides, in assay [3], the “fold higher affinity than CD28 for binding B7-H2” value was around 100 fold. In addition, the Kd in assay [4] and in assay [5] was 16 nM throughout. In assay [6], the koff turned out to be 0.004 s⁻¹. Moreover, the kon in assay [6] stood at 240000 M⁻¹ s⁻¹.

What is called Kd is the free concentration of one partner at which half of the binding sites on the other are occupied at equilibrium, for simple one-to-one binding. Usually koff stands for the rate constant with which the complex falls apart. One may read the kon as a measure of how fast the partners come together. A high value points to faster complex formation.
